How the values were obtained:
YFP-β3 [1] = molecular target: YFP-β3 (UniProt P54287); assay: FRET or BRET
YFP-β3 [2] = molecular target: YFP-β3 (UniProt P54287 1-484); assay: FRET or BRET
Chain of YFP-β3 (UniProt P54287 1-484) (P54287 whole entry): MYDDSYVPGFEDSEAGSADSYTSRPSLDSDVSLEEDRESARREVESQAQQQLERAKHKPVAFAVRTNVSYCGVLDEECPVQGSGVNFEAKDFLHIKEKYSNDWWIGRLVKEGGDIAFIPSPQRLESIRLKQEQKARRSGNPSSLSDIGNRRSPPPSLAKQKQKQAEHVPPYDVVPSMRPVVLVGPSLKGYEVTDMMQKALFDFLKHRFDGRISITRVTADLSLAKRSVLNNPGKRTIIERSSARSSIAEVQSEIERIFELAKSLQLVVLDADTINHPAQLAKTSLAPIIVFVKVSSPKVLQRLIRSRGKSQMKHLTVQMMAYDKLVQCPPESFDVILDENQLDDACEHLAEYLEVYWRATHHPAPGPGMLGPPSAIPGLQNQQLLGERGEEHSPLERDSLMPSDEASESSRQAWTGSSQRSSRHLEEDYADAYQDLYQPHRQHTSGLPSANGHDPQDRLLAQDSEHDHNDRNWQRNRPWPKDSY

Chain of YFP-β3 (UniProt P54287) (P54287 whole entry): as above

## CFP-Rad[R208A/L235A] (from UniProt P55042 1-308) (natural protein)
YFP-β3 [1]
  fold decrease in affinity compared with CFP-Rad: 8 fold

## CFP-Rad (from UniProt P55042 1-308) (natural protein)
YFP-β3 [1]
  FRET efficiency: 0.123

B1: CFP-Rem[R200A/L227A] (natural protein, UniProt O35929 1-297, looked up)
chain: MTLNTQQEAKTTLRRRASTPLPLSSRGHQPGRLCTAPSAPSQHPRLGQSVSLNPPVRKPSPAQDGWSSESSDSEGSWEALYRVVLLGDPGVGKTSLASLFAEKQDRDPHEQLGGVYERTLSVDGEDTTLVVMDTWEAEKLDESWCQESCLQAGSAYVIVYSIADRSSFESASELRIQLRRTHQANHVPIILVGNKADLAACREVSVEEGRACAVVFDCKFIETSATAQHNVTELFEGVVRQLRLRRQDNAAPETPSPRRRASLGQRARRFLARLTARSARRRALKARSKSCHNLAVL
YFP-β3 [2]
  fold decrease in affinity compared with WT Rem: 5 fold

From paper PMC6255209 (Proceedings of the National Academy of Sciences of the …, 2018)
